Laboratory results: patent US20200315149

How the values were obtained:
[1] = target: cathepsin K-cleaved FXII (UniProt P00748)
[2] = target: full-length coagulation factor XII purified from human plasma (UniProt P00748)
[3] = target: recombinant human pro-HGF (UniProt P14210)
recombinant human pro-HGF, sequence (P14210 32-728): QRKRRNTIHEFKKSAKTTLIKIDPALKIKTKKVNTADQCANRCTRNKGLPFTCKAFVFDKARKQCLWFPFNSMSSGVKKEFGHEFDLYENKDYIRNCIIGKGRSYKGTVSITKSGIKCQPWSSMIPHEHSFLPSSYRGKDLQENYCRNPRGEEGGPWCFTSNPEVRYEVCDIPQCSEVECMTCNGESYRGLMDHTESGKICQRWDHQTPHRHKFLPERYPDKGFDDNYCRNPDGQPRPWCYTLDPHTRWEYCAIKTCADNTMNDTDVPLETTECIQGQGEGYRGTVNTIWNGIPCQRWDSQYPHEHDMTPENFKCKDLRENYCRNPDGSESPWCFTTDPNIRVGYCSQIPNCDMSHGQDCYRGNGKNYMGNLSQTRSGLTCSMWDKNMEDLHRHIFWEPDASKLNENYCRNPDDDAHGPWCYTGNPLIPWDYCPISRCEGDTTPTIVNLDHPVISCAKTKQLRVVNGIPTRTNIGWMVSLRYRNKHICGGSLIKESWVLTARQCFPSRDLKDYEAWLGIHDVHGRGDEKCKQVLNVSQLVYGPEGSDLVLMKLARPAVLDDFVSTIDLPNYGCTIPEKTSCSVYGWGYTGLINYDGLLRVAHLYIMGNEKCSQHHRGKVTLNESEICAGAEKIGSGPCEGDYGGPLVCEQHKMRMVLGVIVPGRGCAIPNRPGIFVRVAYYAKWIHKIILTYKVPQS

plasma kallikrein, sequence (chain, as listed by the source): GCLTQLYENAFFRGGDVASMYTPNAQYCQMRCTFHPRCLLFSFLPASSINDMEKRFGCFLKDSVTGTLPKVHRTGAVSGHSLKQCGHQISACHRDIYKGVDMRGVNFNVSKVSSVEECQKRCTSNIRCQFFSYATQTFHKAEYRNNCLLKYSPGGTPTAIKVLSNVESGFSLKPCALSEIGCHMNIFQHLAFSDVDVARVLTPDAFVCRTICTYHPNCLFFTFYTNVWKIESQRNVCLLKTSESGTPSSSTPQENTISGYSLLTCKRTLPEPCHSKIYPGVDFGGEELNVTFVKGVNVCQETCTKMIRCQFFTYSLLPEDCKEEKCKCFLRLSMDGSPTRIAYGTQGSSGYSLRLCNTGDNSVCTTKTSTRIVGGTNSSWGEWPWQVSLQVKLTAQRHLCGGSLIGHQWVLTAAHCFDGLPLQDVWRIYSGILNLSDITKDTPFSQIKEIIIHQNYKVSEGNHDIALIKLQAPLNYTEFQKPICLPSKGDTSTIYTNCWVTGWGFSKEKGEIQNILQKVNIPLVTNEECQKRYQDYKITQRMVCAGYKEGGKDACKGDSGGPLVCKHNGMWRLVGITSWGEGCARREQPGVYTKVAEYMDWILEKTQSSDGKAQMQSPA
cathepsin K-cleaved FXII, sequence (P00748 20-615): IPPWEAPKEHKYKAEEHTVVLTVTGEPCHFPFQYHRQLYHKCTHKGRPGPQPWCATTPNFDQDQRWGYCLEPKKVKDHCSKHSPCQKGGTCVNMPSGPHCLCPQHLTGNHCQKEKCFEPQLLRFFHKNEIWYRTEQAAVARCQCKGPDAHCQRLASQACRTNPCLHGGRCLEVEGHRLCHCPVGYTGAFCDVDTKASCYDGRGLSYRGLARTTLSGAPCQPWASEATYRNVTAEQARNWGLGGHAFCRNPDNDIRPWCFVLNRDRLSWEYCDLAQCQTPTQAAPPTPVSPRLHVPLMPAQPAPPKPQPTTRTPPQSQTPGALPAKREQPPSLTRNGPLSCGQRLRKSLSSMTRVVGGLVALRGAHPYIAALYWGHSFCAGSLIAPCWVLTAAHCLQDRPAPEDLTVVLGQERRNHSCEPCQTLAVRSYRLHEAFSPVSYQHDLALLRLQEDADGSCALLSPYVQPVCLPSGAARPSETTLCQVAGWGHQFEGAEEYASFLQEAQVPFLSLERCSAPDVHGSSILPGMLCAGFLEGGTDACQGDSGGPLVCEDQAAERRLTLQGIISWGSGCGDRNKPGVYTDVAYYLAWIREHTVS
full-length coagulation factor XII purified from human plasma, sequence (P00748 20-615): as above

For plasma kallikrein, the “FXIIa activity on chromogenic substrate S-2302 after incubation with plasma kallikrein (15 nM, 15 min)” value [1] was “cathepsin K-cleaved FXII had dramatically increased activity compared to full-length FXII when incubated with plasma kallikrein” and the “FXIIa activity on chromogenic substrate S-2302 after incubation with plasma kallikrein (15 nM, 15 min)” value [2] was “Cathepsin-cleaved FXII incubated with kallikrein (15 nM) had much higher activity than full length FXII incubated with kallikrein”.
With thrombin the “cleavage of pro-HGF, western blot” value [3] was “other serine proteases found in the brain such as thrombin and tissue plasminogen activator did not convert pro-HGF to HGF”.
